According to patent US10801046B2, “Methods and materials for biosynthesizing multifunctional, multivariate molecules via carbon chain modification” (INVISTA NORTH AMERICA S.A.R.L., priority 2016, dated 2020):

B1: SEQ ID NO: 91: Cryptobacterium curtum thioesterase (protein)
chain: MTISASLFLEKDYRLRTGDFDRYRRLHPTAVLDLFQDIGGLQAEMMGIGYDAMAAQDVFWAVVRTAYQVEHTPAEHEVVKVSTWPHSPSRYSFQRDYALRSTDGSLLVRGTSEWVLMDMNTRSLTSVLDYYHGSLDFIDERMFAKKLRKIRDFTEEGSGLSITPRYSDVDQNGHVNNARYASFVLDALDPSAAGSIASFQIDFRHEVIEGTPLVVFTQVEGKDIQAKGLDSNGEIKFACKITAQA
modifications: Cryptobacterium curtum (strain ATCC 700683 / DSM 15641 / 12-3)
notes: Cryptobacterium curtum thioesterase
B2: SEQ ID NO: 187: Eggerthella sp. CAG:1427 thioesterase (protein)
chain: MTIGYEQTYQLRTGDFDRYAHLLPSSILDVFQDVAGVNAEQVPGMTWKELTDAGLFWVVTRIKYEVIETPHLHEQVIARTWPLAPTRLGFQREYTMRKLDGTPLVKCSSDWILMDYKTRSFASARDFYNGPQDFSEEKVFEKKLRKIKTFEPEDTGETFQVHFVDIDINGHVNNSKYPNFVMNSLDLGEDETIKTFQIDYRHELRAGSTVRIHSKRDGNVITSMGISTEGDTAGECMFATQIELA
modifications: Eggerthella sp. CAG:1427
notes: Eggerthella sp; CAG:1427 thioesterase
B3: SEQ ID NO: 88: Clostridium sulfidigenes thioesterase (protein)
chain: MELNYKEQFTIKFHEGDFMGNVKLFTIMDYVQQVSEGHSQILGVDFQSMMNKGLFWVVSRVEITMERYPKVGEDITVETCLGGREKVFMKRRFKIKDKDGQVIGRVLIYYLIVDIETRLPQKPSMCPVDININVGDVIDNKLNKIKMPGEAIETVNRKLYYNDIDINNHVNNAKYISFIEDFFSLDWHRVKKISYMQLNFIKEIKFDDSLIMNKFIEDKESNSFCINGISEISEQEFFQCRLKF
modifications: Clostridium sulfidigenes
notes: Clostridium sulfidigenes thioesterase
B4: SEQ ID NO: 25: Mycobacterium marinum carboxylate reductase (protein)
chain: MSPITREERLERRIQDLYANDPQFAAAKPATAITAAIERPGLPLPQIIETVMTGYADRPALAQRSVEFVTDAGTGHTTLRLLPHFETISYGELWDRISALADVLSTEQTVKPGDRVCLLGFNSVDYATIDMTLARLGAVAVPLQTSAAITQLQPIVAETQPTMIAASVDALADATELALSGQTATRVLVFDHHRQVDAHRAAVESARERLAGSAVVETLAEAIARGDVPRGASAGSAPGTDVSDDSLALLIYTSGSTGAPKGAMYPRRNVATFWRKRTWFEGGYEPSITLNFMPMSHVMGRQILYGTLCNGGTAYFVAKSDLSTLFEDLALVRPTELTFVPRVWDMVFDEFQSEVDRRLVDGADRVALEAQVKAEIRNDVLGGRYTSALTGSAPISDEMKAWVEELLDMHLVEGYGSTEAGMILIDGAIRRPAVLDYKLVDVPDLGYFLTDRPHPRGELLVKTDSLFPGYYQRAEVTADVFDADGFYRTGDIMAEVGPEQFVYLDRRNNVLKLSQGEFVTVSKLEAVFGDSPLVRQIYIYGNSARAYLLAVIVPTQEALDAVPVEELKARLGDSLQEVAKAAGLQSYEIPRDFIIETTPWTLENGLLTGIRKLARPQLKKHYGELLEQIYTDLAHGQADELRSLRQSGADAPVLVTVCRAAAALLGGSASDVQPDAHFTDLGGDSLSALSFTNLLHEIFDIEVPVGVIVSPANDLQALADYVEAARKPGSSRPTFASVHGASNGQVTEVHAGDLSLDKFIDAATLAEAPRLPAANTQVRTVLLTGATGFLGRYLALEWLERMDLVDGKLICLVRAKSDTEARARLDKTFDSGDPELLAHYRALAGDHLEVLAGDKGEADLGLDRQTWQRLADTVDLIVDPAALVNHVLPYSQLFGPNALGTAELLRLALTSKIKPYSYTSTIGVADQIPPSAFTEDADIRVISATRAVDDSYANGYSNSKWAGEVLLREAHDLCGLPVAVFRCDMILADTTWAGQLNVPDMFTRMILSLAATGIAPGSFYELAADGARQRAHYDGLPVEFIAEAISTLGAQSQDGFHTYHVMNPYDDGIGLDEFVDWLNESGCPIQRIADYGDWLQRFETALRALPDRQRHSSLLPLLHNYRQPERPVRGSIAPTDRFRAAVQEAKIGPDKDIPHVGAPIIVKYVSDLRLLGLL
modifications: Mycobacterium marinum (strain ATCC BAA-535 / M)
notes: Mycobacterium marinum carboxylate reductase
B5: SEQ ID NO: 27: Mycobacterium smegmatis fatty-acid-CoA ligase with carboxylate reductase activity (protein)
chain: MTIETREDRFNRRIDHLFETDPQFAAARPDEAISAAAADPELRLPAAVKQILAGYADRPALGKRAVEFVTDEEGRTTAKLLPRFDTITYRQLAGRIQAVTNAWHNHPVNAGDRVAILGFTSVDYTTIDIALLELGAVSVPLQTSAPVAQLQPIVAETEPKVIASSVDFLADAVALVESGPAPSRLVVFDYSHEVDDQREAFEAAKGKLAGTGVVVETITDALDRGRSLADAPLYVPDEADPLTLLIYTSGSTGTPKGAMYPESKTATMWQAGSKARWDETLGVMPSITLNFMPMSHVMGRGILCSTLASGGTAYFAARSDLSTFLEDLALVRPTQLNFVPRIWDMLFQEYQSRLDNRRAEGSEDRAEAAVLEEVRTQLLGGRFVSALTGSAPISAEMKSWVEDLLDMHLLEGYGSTEAGAVFIDGQIQRPPVIDYKLVDVPDLGYFATDRPYPRGELLVKSEQMFPGYYKRPEITAEMFDEDGYYRTGDIVAELGPDHLEYLDRRNNVLKLSQGEFVTVSKLEAVFGDSPLVRQIYVYGNSARSYLLAVVVPTEEALSRWDGDELKSRISDSLQDAARAAGLQSYEIPRDFLVETTPFTLENGLLTGIRKLARPKLKAHYGERLEQLYTDLAEGQANELRELRRNGADRPVVETVSRAAVALLGASVTDLRSDAHFTDLGGDSLSALSFSNLLHEIFDVDVPVGVIVSPATDLAGVAAYIEGELRGSKRPTYASVHGRDATEVRARDLALGKFIDAKTLSAAPGLPRSGTEIRTVLLTGATGFLGRYLALEWLERMDLVDGKVICLVRARSDDEARARLDATFDTGDATLLEHYRALAADHLEVIAGDKGEADLGLDHDTWQRLADTVDLIVDPAALVNHVLPYSQMFGPNALGTAELIRIALTTTIKPYVYVSTIGVGQGISPEAFVEDADIREISATRRVDDSYANGYGNSKWAGEVLLREAHDWCGLPVSVFRCDMILADTTYSGQLNLPDMFTRLMLSLVATGIAPGSFYELDADGNRQRAHYDGLPVEFIAEAISTIGSQVTDGFETFHVMNPYDDGIGLDEYVDWLIEAGYPVHRVDDYATWLSRFETALRALPERQRQASLLPLLHNYQQPSPPVCGAMAPTDRFRAAVQDAKIGPDKDIPHVTADVIVKYISNLQMLGLL
modifications: Mycobacterium smegmatis (strain ATCC 700084 / mc(2)155)
B6: SEQ ID NO: 185: Granulicatella elegans ATCC 700633 thioesterase (protein)
chain: MTVDVICQIERTILPYECDWKENLLLSQALGMMMLASRKQQQQLQNPNLIYEKGYTWIVIQHEIEIQRMPKVDEEVIIETQAISYNKFFTYREYRILSKEREELFKCITTFAMLDMKARKIVSIDEEVVLEYPLSIGKEMRKATRIPKKDFSDATTGEYKIRINDIDANLHVNNARYFDFAFSELGMEFIEDHQLKQVVIKYEKEVLPESTISCSTLWEENTLESQERRQTYHLISQDGNRCANIQMKWEEIV
modifications: Granulicatella elegans ATCC 700633
notes: Granulicatella elegans ATCC 700633 thioesterase

How the values were obtained:
Assay type in all cases: biochemical
heptanedioyl-ACP = assay: Cell lysate in vitro thioesterase screen (DTNB, absorbance at 410 nm) on heptanedioyl-ACP; details: 0.33 mM acyl-ACP substrate, 30° C., 30 min
[1] = tested on: heptanedioyl-ACP methyl ester; assay: Cell lysate in vitro thioesterase screen (DTNB, absorbance at 410 nm) on heptanedioyl-ACP methyl ester; details: 0.33 mM acyl-ACP substrate, 30° C., 30 min
[2] = Carboxylate reductase activity, 7-hydroxyheptanoate to 7-hydroxyheptanal, NADPH consumption at 340 nm; details: enhanced by gene product of sfp, 20 min, against empty vector control, FIG. 44
Method: A sequence encoding a His-tag was added to the genes from Mycobacterium marinum, Mycobacterium smegmatis, Segniliparus rugosus, Mycobacterium smegmatis, Mycobacterium massiliense, and Segniliparus rotundus that encode the carboxylate reductases of SEQ ID NOs: 25 (GenBank Accession No. ACC40567.1), 27 (GenBank Accession No. ABK75684.1), 29 (GenBank Accession No. ABK71854.1), 31 (GenBank Accession No. EFV11917.1), 37 (GenBank Accession No. EIV11143.1), and 38 (GenBank Accession No. ADG98140.1) such that N-terminal HIS tagged carboxylate reductases could be produced. Each of the modified genes was cloned into a pET Duet expression vector alongside a sfp gene encoding a His-tagged phosphopantetheine transferase from Bacillus subtilis, both under control of the T7 promoter.
Each expression vector was transformed into a BL21[DE3] E. coli host and the resulting recombinant E. coli strains were cultivated at 37° C. in a 250 mL shake flask culture containing 50 mL LB media and antibiotic selection pressure, with shaking at 230 rpm. Each culture was induced overnight at 37° C. using an auto-induction media.
The pellet from each induced shake flask culture was harvested via centrifugation. Each pellet was resuspended and lysed via sonication. The cell debris was separated from the supernatant via centrifugation. The carboxylate reductases and phosphopantetheine transferase were purified from the supernatant using Ni-affinity chromatography, diluted 10-fold into 50 mM HEPES buffer (pH=7.5) and concentrated via ultrafiltration.
Enzyme activity (i.e., 7-hydroxyheptanoate to 7-hydroxyheptanal) assays were performed in triplicate in a buffer composed of a final concentration of 50 mM HEPES buffer (pH=7.5), 2 mM […], 10 mM MgCl2, 1 mM ATP, and 1 mM NADPH. Each enzyme activity assay reaction was initiated by adding purified carboxylate reductase and phosphopantetheine transferase or the empty vector control to the assay buffer containing the 7-hydroxyheptanoate and then incubated at room temperature for 20 min. The consumption of NADPH was monitored by absorbance at 340 nm.

Molecule | activity toward heptanedioyl-ACP (hydrolysis) (heptanedioyl-ACP) | activity toward heptanedioyl-ACP methyl ester (hydrolysis) [1] | acceptance of 7-hydroxyheptanoate as substrate, forming 7-hydroxyheptanal [2]
B1 | notable for their activity toward heptanedioyl-ACP | notable for their activity toward heptanedioyl-ACP methyl ester | 
B2 | notable for their activity toward heptanedioyl-ACP |  | 
B3 | notable for their activity toward heptanedioyl-ACP | notable for their activity toward heptanedioyl-ACP methyl ester | 
B4 |  |  | accepted 7-hydroxyheptanoate as substrate
B5 |  |  | accepted 7-hydroxyheptanoate as substrate
B6 | notable for their activity toward heptanedioyl-ACP |  | 
